These results are taken from patent US20200262895A1 (Biogen, published 2020).

Substitutions are numbered along the chain they refer to. In names and notes the source's numbering stands. Where two headings read alike, the source gives them in different places.

For test [1], the target named is T1, recombinant human tau, isoform Tau-F of 441 aa (hTau40) (human, UniProt P10636 1-758).
T1 construct: Bought from rPeptide (Bogart, GA, USA); coated on ELISA plates, blotted, or spotted as overlapping peptides; also called full-length tau; rTau
Nature of the test: direct ELISA on coated recombinant tau (rTau). Background: An ELISA detects its analyte on a solid surface through an enzyme-linked reagent.

Test [2] concerns the target T2, PHFTau (paired helical filaments containing pathologically phosphorylated tau filaments, extracted from AD … (human, UniProt P10636-8 1-441, limits assumed, pathologically phosphorylated (sites of the preparation not listed), aggregated filaments)).
T2 construct: Brain extract, not a single defined isoform; also called human PHF tau; pathologically modified PHFTau
The experiment in a line: direct ELISA on coated PHFTau.

The target of test [3] is T3, normal tau in wild type mouse brain (Wt) (mouse, UniProt P10637-2 1-430, limits assumed).
T3 construct: Control tissue in immunohistochemistry
Nature of the test: immunohistochemistry on brain tissue sections.

Test [4] addresses T1, recombinant human tau, isoform Tau-F of …. Nature of the test: direct ELISA, hTau40 coated at 1 ug/ml. The protocol:
The EC₅₀ values were estimated by a non-linear regression using GraphPad Prism software.
ELISA plates were coated with recombinant human tau (hTau40, 1 ug/ml), PHFTau (1:100) and control preparation (1:100), and incubated with varying antibody concentrations.

Test [5] has the same target. The experiment in a line: ELISA on recombinant Tau, absorbance at 450 nm.
For test [6] the target is unchanged. The experiment in a line: ELISA on recombinant Tau, absorbance at 450 nm. This is another data set of the same source.

The term EC50 denotes the concentration at which the effect is half-maximal. A word on the EC50 (read off the curve): it is the concentration that produces a half-maximal response.

T1 sequence (P10636 other isoform, or with tags, fused parts or gaps limits assumed): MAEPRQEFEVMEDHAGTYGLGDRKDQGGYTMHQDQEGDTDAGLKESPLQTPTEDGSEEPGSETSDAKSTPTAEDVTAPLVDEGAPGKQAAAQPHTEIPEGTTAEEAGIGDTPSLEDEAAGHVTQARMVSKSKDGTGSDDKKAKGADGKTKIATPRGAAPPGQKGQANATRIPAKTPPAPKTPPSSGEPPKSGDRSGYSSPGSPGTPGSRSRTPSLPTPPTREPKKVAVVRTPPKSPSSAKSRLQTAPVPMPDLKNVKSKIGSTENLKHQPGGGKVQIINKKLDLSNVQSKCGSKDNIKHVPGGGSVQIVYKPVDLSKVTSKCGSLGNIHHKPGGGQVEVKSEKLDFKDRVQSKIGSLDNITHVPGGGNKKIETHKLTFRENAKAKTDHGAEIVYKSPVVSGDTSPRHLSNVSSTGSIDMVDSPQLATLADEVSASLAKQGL
T3 sequence (P10637 other isoform, or with tags, fused parts or gaps limits assumed): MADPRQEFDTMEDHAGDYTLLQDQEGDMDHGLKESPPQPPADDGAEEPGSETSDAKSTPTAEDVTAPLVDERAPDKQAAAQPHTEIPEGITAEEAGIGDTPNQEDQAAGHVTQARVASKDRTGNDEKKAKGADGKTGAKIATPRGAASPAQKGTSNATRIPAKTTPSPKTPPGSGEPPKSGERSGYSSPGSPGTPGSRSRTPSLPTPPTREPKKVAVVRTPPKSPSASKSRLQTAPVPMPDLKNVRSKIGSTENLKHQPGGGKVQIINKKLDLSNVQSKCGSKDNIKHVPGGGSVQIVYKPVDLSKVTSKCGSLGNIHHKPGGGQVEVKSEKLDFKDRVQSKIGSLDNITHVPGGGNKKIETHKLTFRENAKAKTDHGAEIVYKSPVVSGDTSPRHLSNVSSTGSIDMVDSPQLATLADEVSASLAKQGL
T2 sequence (P10636 other isoform, or with tags, fused parts or gaps limits assumed): as the sequence (P10636 other isoform, or with tags, fused parts or gaps limits assumed) above

B1: recombinant human antibody NI-105.22E1 (germlined) (antibody, human IgG1, V domains shown)
VH: EVQLVQSGAEVKKPGESLKISCKGSGYRFTTYWIGWVRQMPGKGLEWMGIIYPGDSDTRYSPSYQGQVTISADKSISTAYLQWSSLKASDTGMYYCARVAGDIGYENYYYYGMDVWGQGTTVTVSS
VL: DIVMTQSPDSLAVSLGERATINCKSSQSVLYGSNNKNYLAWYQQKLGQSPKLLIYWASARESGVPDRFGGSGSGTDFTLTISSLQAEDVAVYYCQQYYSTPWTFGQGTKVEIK
notes: Complete recombinant human IgG1 by the methods
For B1, the EC50 in test [1] turned out to be 1.1 nM.

B2: recombinant human antibody NI-105.9C4 (germlined) (antibody, human IgG1, V domains shown)
VH: QVQLVQSGAEVKKPGASVKVSCKASGYIFTAFFMHWVRQAPGQGLEWMGWINPDSGATKYAHNFQGRVTMTRDTSISTAFMELSGLKSDDTGVYYCATGMAVTGNFWGQGTLVTVSS
VL: SYELTQPPSVSVSPGQTARITCSGDVLAETYARWFQQKPGQAPVLVMYRDRERPAGIPERFSGSSSGNTVTLTISGAQAEDEAVYHCHSVADNNLDWVFGGGTKLTVL
notes: Complete human IgG1 by the methods
As to B2, the EC50 in test [1] was determined as 5.2 nM.

B3: recombinant human antibody NI-105.19C6 (germlined) (antibody, human IgG1, V domains shown)
VH: EVQLVQSGAEVKKPGESLKISCKASGYSFISYWVGWVRQMPGKGLEWMGIIYPGDSDTRYSPSFEGQVSISADKSISTAYLQWTSLKASDTAMYYCARHWGPAAVTDSPWFGPWGQGTLVTVSS
VL: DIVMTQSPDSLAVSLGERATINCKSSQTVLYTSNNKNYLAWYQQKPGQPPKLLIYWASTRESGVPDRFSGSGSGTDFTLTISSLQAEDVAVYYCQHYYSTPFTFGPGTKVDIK
notes: as for B1
As for B3, in test [1], the EC50 was 4 nM.

B4: recombinant human antibody NI-105.39E2 (germlined) (antibody, human IgG1, V domains shown)
VH: EVQLVESGGGLVQPGGSLRLSCAASGFTFSAYGMNWVRQAPGKGLEWVAHITGSGTPIFYADSVKGRFTISRDNAKSSLYLQMNSLRNDDTALYFCVRGTVDYWGQGTLVTVSS
VL: QAGLTQPPSVSKDLRQTATLTCSGNSNNVGNQGAAWLQQFPGHPPKLLFYENINRPSGISERFSASRSGNTASLTITGLQPEDEADYYCSAWDGHLNAWVFGGGTKLTVL
notes: as for B1
For B4, the EC50 in test [1] stood at 0.7 nM.

B5: recombinant human antibody NI-105.60E7 (germlined) (antibody, human IgG1, V domains shown)
VH: EVQLVESGGGFVRPGGSITLSCATSGFTFTKAWMTWVRQAPVKGLEWIGHIKTRIEGATTDYAAPVEGRFTISRDDSKNMVYLQMNSLKTEDSGIYYCSTDFDYWGQGTLVTVSS
VL: DVVMTQSPLSLPVTLGQPASISCTSSQSLLYSDGNTYLNWFQQRPGQSPRRLMYKVSKRDPGVPDRFSGSGSGTDFTLSISRVEAEDVGVYYCMQGSLWPRYTFGQGTKVEIK
notes: as for B1
As for B5, the EC50 in test [1] came out at 0.18 nM.

B6: recombinant human antibody NI-105.29G10 (germlined) (antibody, human IgG1, V domains shown)
VH: EVQLVESGGDLVQPGGSLRLSCAASGFDFSGYSMAWVRQAPGKGLEWVSYISGTYVSGGTGTMYYLDSVKGRFFISRDDATSSLYLQMDSLRDEDTAVYYCARVYDYGEDWGQGTLVTVSS
VL: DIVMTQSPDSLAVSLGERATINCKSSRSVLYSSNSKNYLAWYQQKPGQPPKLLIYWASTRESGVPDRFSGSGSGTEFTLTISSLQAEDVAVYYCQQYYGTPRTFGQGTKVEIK
notes: as for B1
For the molecule B6, the EC50 turned out to be 3.8 nM in test [1] and 5.3 nM in test [2].

B7: recombinant human antibody NI-105.48E5 (germlined) (antibody, V domains shown)
VH: EVQLVESGGGLVQPGGSLKLSCAASGFTFSGSAMHWVRQASGKGLEWVGRIRSKANSYATAYAASVKGRFTISRDDSKNTAYLQMNSLKTEDTAVYYCTSPTVTTEVWGQGTLVTVSS
VL: not shown
notes: as for B1
For B7, in test [3], the binding result was “no binding”.

B8: recombinant human antibody NI-105.4E4 (antibody, V domains shown)
VH: EVQLVESGGGLVQPGGSLKLSCAASGFNFNISAIHWVRQASGKGLEWVGRIRSKSHNYATLYAASLKGRFTLSRDDSRNTAYLQMSSLQTEDMAVYYCTVLSANYDTFDYWGQGTLVTVSS
VL: LPVLTQPPSVSVSPGQTARISCFGDTLPKQYTYWYQQKPGQAPVLVIYKDTERPSGIPERFSGSSSGTTVTLTISGVQAEDEADYYCLSADNSATWVFGGGTKVTVL
modifications: Asn-30 of the VH carried an N-glycan when the chimeric ch4E4 was expressed in CHO cells; the letter is unchanged.
notes: Human antibody described in US 2012/0087861
For B8, the EC50 in test [4] was 2.4 nM.

B9: recombinant human antibody NI-105.6L9 (germlined) (antibody, human IgG1, V domains shown)
VH: EVQLVESGGGLVQPGGSLRLSCAGTRFTFSTYAMGWVRQAPGRGLEWVSAIGGSGDSTSYADSVKGRFTISRDNSKNTLYLQMNSLRAEDTAVYYCAKGVYDYLWGSYRLFDYWGQGTLVTVSS
VL: SYVLTQPPSVSVAPGQTARFTCGGNNIASKSVHWYQQKPGQAPVLVVYDDSDRPSRIPERFSGSNSGNTATLTISRVEAGDEADYYCQVWDSTSDHVVFGGGTKLTVL
notes: as for B1
On to B9, for which, in test [1], the EC50 was 2.5 nM.

B10: ch17C1(N31Q) mIgG2a (antibody)
heavy: EVQLVQSGAEVKKPGESLKISCKAFGYSFTNFWIGWVRQVPGKGLEWVGIIYPGDSDTRYSPSFQGQVTISADKSIDTAYLQWGHLKASDSAMYFCARRGFWTGSQIEYWGQGTQVTVSSAKTTAPSVYPLAPVCGDTTGSSVTLGCLVKGYFPEPVTLTWNSGSLSSGVHTFPAVLQSDLYTLSSSVTVTSSTWPSQSITCNVAHPASSTKVDKKIEPRGPTIKPCPPCKCPAPNLLGGPSVFIFPPKIKDVLMISLSPIVTCVVVDVSEDDPDVQISWFVNNVEVHTAQTQTHREDYNSTLRVVSALPIQHQDWMSGKEFKCKVNNKDLPAPIERTISKPKGSVRAPQVYVLPPPEEEMTKKQVTLTCMVTDFMPEDIYVEWTNNGKTELNYKNTEPVLDSDGSYFMYSKLRVEKKNWVERNSYSCSVVHEGLHNHHTTKSFSRTPGK
light: QSALTQPPSASGSPGHSVTISCTGTSSDVGQYSFVSWYQQYPGKAPKIIIYDVSKRSSGVPDRFFGSKSANTASLTVSGVQEEDEADYFCSSYGGSKYPWVFGGGTKLTVLGQPKSSPSVTLFPPSSEELETNKATLVCTITDFYPGVVTVDWKVDGTPVTQGMETTQPSKQSNNKYMASSYLTLTARAWERHSSYSCQVTHEGHTVEKSLSRADCS
Turning to B10, the “EC50 (read off the curve)” value in test [5] was about 0.8 µg/mL; in test [6] it was about 0.3 µg/mL.

B11: ch17C1(N31Q) mIgG1 Agly (antibody)
heavy: EVQLVQSGAEVKKPGESLKISCKAFGYSFTNFWIGWVRQVPGKGLEWVGIIYPGDSDTRYSPSFQGQVTISADKSIDTAYLQWGHLKASDSAMYFCARRGFWTGSQIEYWGQGTQVTVSSAKTTPPSVYPLAPGSAAQTNSMVTLGCLVKGYFPEPVTVTWNSGSLSSGVHTFPAVLQSDLYTLSSSVTVPSSTWPSETVTCNVAHPASSTKVDKKIVPRDCGCKPCICTVPEVSSVFIFPPKPKDVLTITLTPKVTCVVVDISKDDPEVQFSWFVDDVEVHTAQTQPREEQFQSTFRSVSELPIMHQDWLNGKEFKCRVNSAAFPAPIEKTISKTKGRPKAPQVYTIPPPKEQMAKDKVSLTCMITDFFPEDITVEWQWNGQPAENYKNTQPIMDTDGSYFVYSKLNVQKSNWEAGNTFTCSVLHEGLHNHHTEKSLSHSPGK
light: B10 light
notes: Aglycosylated Fc; also called ch17C1-mIgG1-Agly; ch17C1 Agly
Consider B11, for which the “EC50 (read off the curve)” value in test [5] was about 0.9 µg/mL.

B12: chimeric NI-105.17C1 (ch17C1), mouse IgG2a/lambda (antibody, V domains shown)
VH: EVQLVQSGAEVKKPGESLKISCKAFGYSFTNFWIGWVRQVPGKGLEWVGIIYPGDSDTRYSPSFQGQVTISADKSIDTAYLQWGHLKASDSAMYFCARRGFWTGSQIEYWGQGTQVTVSS
VL: QSALTQPPSASGSPGHSVTISCTGTSSDVGNYSFVSWYQQYPGKAPKIIIYDVSKRSSGVPDRFFGSKSANTASLTVSGVQEEDEADYFCSSYGGSKYPWVFGGGTKLTVLG
modifications: N-glycan on Asn-31 (CDR1), fully occupied on CHO expression
notes: also called ch17C1-mIgG2a
Consider B12, for which the “EC50 (read off the curve)” value in test [5] was about 0.8 µg/mL.

B13: ch17C1(N31Q, I48V) mIgG2a (antibody, V domains shown)
VH: B12 VH
VL: B12 VL with N31Q, I48V
notes: The sentence giving the chains names the antibody 'ch17C1(N31Q) mIgG2a' but lists the (N31Q, I48V) light chain
Regarding B13, the “EC50 (read off the curve)” value in test [6] was about 0.3 µg/mL.

B14: recombinant human antibody NI-105.26B12 (germlined) (antibody, human IgG1, V domains shown)
VH: QVQLVESGGGVVQPGRSLRLSCAASGFTFTRYGMHWVRQAPGKGLEWVAVIWYDGTNKYYADSLQGRFTISRDTSTNTLYLQMNGLRVEDRAVYYCAREGFQGAIDYWGQGTLVTVSS
VL: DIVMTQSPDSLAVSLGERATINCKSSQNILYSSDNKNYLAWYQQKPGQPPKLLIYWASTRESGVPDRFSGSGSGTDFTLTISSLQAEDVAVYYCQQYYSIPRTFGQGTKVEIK
notes: as for B1
With B14, the EC50 in test [1] stood at 2.9 nM.

B15: recombinant human antibody NI-105.12E12 (germlined) (antibody, human IgG1, V domains shown)
VH: EVQLVESGGGLVQPGGSLKLSCAASGFSFSDSAFHWARQASGKGLEWVGRIRSKGNNYATAYAASVKGRFTVSRDDSKNTTYLQMNSLKTDDTAIYYCTRQGPSYGGINWGLGTLVTVSS
VL: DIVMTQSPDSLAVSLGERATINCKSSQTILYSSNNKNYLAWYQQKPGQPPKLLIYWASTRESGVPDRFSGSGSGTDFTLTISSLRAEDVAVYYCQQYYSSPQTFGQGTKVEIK
notes: as for B1
Consider B15, for which, in test [1], the EC50 amounted to 28.6 nM.

B16: recombinant human antibody NI-105.40E8 (NI-105.40E8-hIgG1, germlined) (antibody, V domains shown)
VH: EVQLVESGGGLVQPGGSLRLSCAASGFTFPNYVMTWVRQAPGKGLEWVSGISGSGGSTDYADSVKGRFTISRDNSKNTLYLQMNSLRVEDTALYYCAKGSGGIRGQGTMVTVSS
VL: QSALTQPRSVSGSPGQSVTISCTGTSSDVGGYNYVSWHQQHPGKAPKLLIYDVTKRPSGVPDRFSGSKSGNTAALTISGLQAEDEADYYCHSYVGSYTLVFGGGTKLTVLG
notes: Heavy chain is human IgG1
With B16, the binding result in test [3] is recorded as “no binding”.

B17: recombinant human antibody NI-105.17C1 (not germlined, as used in Table 7) (antibody, human IgG1, V domains shown)
VH: B12 VH with Q115L
VL: QSALTQPPSASGSPGHSVTISCTGTSSDVGNYSFVSWYQQYPGKAPKVIIYDVSKRSSGVPDRFFGSKSANTASLTVSGVQEEDEADYFCSSYGGSKYPWVFGGGTKLTVL
notes: as for B2
In the case of B17, the values for the EC50 in test [1] and in test [2] were 3.3 nM and 4.7 nM, respectively.

B18: recombinant human antibody NI-105.14E2 (germlined) (antibody, human IgG1, V domains shown)
VH: EVQLVQSGAEVKKPGDSLRISCKASGYNFPNYWIGWVRQMPGKGLEWMGIIYPGDSDIRYSPSFQGHVTISSDKSITTAYLQWTSLKVADSAMYYCARVERPDKGGWFGPWGQGTLVTVSS
VL: DIVMTQSPDSLAVSLGERATINCKSSQTLLYTSNNQNYLAWYQHKPGQPPKVLIYWASTREYGVPDRFSGSGSGTDFTLTISSLQPEDVAVYYCQQYYNSPYTFGQGTKLEIK
notes: as for B1
For the molecule B18, the EC50 in test [1] came to 0.65 nM.
